Here are results for 1 substance from article PMC5877976.

What all share (assay): SPR
(SPR reads the build-up and loss of mass on a sensor chip optically.)

In test [1] the target is chronic gp120 with its wild-type chronic SP (HIV-1 (subtype B)).
For test [2], the target named is chronic gp120 with the early-replicating SP (HIV-1 (subtype B)).
In test [3] the target is early-replicating gp120 with its wild-type SP (HIV-1 (subtype B)).
The target in test [4] is early-replicating gp120 with the chronic SP (HIV-1 (subtype B)).

Regarding “tetrameric recombinant soluble DC-SIGN (from UniProt Q9NNX6 1-404) (receptor)”, the peak response units (RU) in test [1] is 184 RU; in test [2], 308 RU; in test [3], 208 RU; in test [4] it was 131 RU.
